Reference: patent publication EP2717940B1
Each block holds one substance with its values, some of them ahead of it.

What was measured:
hCCR2b (human) = hCCR2b (human) (UniProt P41597); experiment: cell-based or functional assay
[1] = target: chemokine (C-C motif) receptor 2 (CCR2) on peripheral blood cells (human) (UniProt P41597); experiment: flow cytometry, biotinylated chemokine (1 µM) on blood cells of adiposis dolorosa patients, CD19 positive cells, detected with fluorophore conjugated streptavidin
Chain of chemokine (C-C motif) receptor 2 (CCR2) on peripheral blood cells (human) (P41597 whole entry): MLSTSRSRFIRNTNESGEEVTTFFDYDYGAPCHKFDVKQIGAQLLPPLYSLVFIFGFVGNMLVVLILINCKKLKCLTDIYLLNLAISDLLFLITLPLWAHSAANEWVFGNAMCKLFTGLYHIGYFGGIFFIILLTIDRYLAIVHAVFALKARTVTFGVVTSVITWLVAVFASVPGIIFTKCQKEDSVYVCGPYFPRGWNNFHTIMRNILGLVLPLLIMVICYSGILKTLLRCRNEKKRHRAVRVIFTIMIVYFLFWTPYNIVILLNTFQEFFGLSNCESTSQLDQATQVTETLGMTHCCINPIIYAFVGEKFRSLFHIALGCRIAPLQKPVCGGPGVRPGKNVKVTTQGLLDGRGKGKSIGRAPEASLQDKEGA

[2] = target: chemokine (C-C motif) receptor 2 (CCR2) on peripheral blood cells (human) (UniProt P41597); experiment: in vitro depletion: blood of three healthy donors passed through a column with bMCP-1 coupled streptavidin Sepharose matrix, flow cytometry before and after
[3] = target: chemokine (C-C motif) receptor 5 (CCR5) (human) (UniProt P51681); experiment: cell-based or functional assay
Chain of chemokine (C-C motif) receptor 5 (CCR5) (human) (P51681 whole entry): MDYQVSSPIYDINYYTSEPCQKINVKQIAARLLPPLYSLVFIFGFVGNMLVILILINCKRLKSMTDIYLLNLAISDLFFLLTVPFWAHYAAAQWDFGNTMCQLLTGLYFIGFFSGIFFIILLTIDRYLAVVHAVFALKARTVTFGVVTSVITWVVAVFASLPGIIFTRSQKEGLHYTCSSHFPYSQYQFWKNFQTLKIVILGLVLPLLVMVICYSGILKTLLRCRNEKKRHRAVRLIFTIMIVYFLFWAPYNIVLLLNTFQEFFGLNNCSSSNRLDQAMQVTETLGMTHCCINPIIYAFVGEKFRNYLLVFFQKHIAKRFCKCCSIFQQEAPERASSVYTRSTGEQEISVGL

[4] = target: T1, chemokine (C-C motif) receptor 1 (CCR1) (human) (UniProt P32246); experiment: in vitro depletion: blood of a healthy donor passed through a column with biotinylated RANTES coupled matrix, flow cytometry for CCR1, 3 or 5-expressing cells
T1 sequence (looked up): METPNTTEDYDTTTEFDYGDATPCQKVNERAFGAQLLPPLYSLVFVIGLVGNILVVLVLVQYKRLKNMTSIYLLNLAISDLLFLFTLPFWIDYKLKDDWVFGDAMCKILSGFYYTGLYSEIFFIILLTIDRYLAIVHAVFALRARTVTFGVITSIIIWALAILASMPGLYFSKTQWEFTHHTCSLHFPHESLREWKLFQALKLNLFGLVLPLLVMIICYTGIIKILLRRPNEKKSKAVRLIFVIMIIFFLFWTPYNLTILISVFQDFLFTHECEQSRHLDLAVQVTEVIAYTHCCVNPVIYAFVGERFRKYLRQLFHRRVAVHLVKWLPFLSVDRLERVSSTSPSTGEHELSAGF

[5] = target: chemokine (C-C motif) receptor 5 (CCR5) (human) (UniProt P51681); experiment: as above
[6] = target: T2, chemokine (C-C motif) receptor 3 (CCR3) (human) (UniProt P51677); experiment: as above
T2 sequence (looked up): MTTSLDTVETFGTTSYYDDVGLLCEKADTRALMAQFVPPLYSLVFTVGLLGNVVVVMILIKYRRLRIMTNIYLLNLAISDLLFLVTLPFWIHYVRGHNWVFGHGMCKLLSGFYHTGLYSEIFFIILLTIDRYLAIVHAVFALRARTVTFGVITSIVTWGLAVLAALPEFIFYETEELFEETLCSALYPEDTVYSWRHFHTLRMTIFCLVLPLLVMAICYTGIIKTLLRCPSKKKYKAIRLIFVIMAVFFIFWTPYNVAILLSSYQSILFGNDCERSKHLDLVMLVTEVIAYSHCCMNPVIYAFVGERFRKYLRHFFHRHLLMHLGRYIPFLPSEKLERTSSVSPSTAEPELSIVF

Chain of UniProt P13501 (P13501 other isoform, or with tags, fused parts or gaps): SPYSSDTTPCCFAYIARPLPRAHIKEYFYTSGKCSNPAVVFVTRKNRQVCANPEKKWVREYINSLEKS
Chain of hCCR2b (human) (P41597 other isoform, or with tags, fused parts or gaps): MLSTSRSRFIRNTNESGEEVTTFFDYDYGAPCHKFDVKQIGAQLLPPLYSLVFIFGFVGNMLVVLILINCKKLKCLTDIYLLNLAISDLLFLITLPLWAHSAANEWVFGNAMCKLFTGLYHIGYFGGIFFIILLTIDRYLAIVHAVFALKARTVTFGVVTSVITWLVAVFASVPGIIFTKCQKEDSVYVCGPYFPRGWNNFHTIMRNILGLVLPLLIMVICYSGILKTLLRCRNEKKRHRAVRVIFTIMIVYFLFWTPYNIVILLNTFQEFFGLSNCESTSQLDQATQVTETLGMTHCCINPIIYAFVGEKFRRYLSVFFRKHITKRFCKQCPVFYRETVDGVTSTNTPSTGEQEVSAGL

- EC50, activity (partial agonist) in an Aequorin assay (hCCR2b (human)): 23.5 nM
Substance: recombinant native MCP-2 (from UniProt P80075 24-99) (ligand)

- percent of B cells that bind [1]: 65%
- remaining levels of monocytes after column passage [2]: 20 to 30%
Substance: biotinylated MCP1 (bMCP1) (from UniProt P13500 24-99) (ligand)

- EC50, agonist activity in an Aequorin assay (hCCR2b (human)): 3.1 nM
Substance: recombinant native MCP-1 (from UniProt P13500 24-99) (ligand)

- EC50, agonist activity in an Aequorin assay [3]: 0.5 nM
- reduction of chemokine receptor-expressing cells by the column [4]: 20%
- reduction of chemokine receptor-expressing cells by the column [5]: 20%
- reduction of chemokine receptor-expressing cells by the column [6]: 20%
Substance: biotinRANTES (CCL5): RANTES derivatised at the ε-amino side chain functionality of Lys(67) with Biotin (TFA salt) (from UniProt P13501 24-91) (ligand)
